Common to all, as to assay: cell-based or functional assay
In one experiment the target is hGLP-1R (Homo sapiens, UniProt P43220).
Experiment [1] has as its target T1, human GIP receptor (human) (UniProt P48546).
T1 sequence (looked up): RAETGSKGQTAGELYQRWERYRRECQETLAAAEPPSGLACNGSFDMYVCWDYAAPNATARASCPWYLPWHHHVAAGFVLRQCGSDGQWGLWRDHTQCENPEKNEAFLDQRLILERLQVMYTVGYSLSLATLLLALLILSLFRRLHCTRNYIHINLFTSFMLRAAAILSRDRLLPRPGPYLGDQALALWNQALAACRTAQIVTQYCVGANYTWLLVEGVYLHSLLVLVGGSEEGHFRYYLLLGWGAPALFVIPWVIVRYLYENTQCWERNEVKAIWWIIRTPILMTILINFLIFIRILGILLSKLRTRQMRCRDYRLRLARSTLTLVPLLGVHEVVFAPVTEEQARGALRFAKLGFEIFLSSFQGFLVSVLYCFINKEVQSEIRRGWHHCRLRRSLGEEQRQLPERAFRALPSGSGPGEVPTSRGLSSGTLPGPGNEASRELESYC

Experiment [2] addresses human GLP-1R (SNAP-GLP-1R expressed in HEK293 cells) (human) (UniProt P43220).
The target in experiment [3] is human glucagon receptor (human) (UniProt P47871).
human glucagon receptor (human), sequence (P47871 26-477): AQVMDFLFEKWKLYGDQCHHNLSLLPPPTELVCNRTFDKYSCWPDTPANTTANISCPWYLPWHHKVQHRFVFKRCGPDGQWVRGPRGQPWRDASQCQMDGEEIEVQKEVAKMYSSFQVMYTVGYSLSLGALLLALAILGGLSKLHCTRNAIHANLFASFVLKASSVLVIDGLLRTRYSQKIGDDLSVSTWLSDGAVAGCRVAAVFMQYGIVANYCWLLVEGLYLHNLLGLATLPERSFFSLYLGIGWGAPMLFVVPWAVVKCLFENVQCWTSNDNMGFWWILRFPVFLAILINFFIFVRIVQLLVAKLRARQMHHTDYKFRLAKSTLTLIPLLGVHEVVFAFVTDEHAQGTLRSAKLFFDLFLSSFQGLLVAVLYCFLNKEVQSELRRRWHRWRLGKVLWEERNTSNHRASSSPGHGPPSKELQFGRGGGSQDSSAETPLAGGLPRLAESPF

human GLP-1R (SNAP-GLP-1R expressed in HEK293 cells) (human), sequence (P43220 24-463): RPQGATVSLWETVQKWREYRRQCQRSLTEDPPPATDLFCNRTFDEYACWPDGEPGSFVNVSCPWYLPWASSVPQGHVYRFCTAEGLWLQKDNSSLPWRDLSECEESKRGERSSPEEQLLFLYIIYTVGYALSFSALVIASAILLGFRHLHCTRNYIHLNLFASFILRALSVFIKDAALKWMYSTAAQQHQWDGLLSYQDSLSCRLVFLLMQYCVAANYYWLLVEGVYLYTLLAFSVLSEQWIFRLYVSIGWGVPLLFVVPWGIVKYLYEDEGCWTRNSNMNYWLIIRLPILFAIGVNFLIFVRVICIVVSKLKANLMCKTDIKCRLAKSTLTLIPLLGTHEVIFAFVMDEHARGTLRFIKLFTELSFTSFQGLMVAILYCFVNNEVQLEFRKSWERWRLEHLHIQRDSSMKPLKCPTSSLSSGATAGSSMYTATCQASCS
hGLP-1R, sequence (P43220 24-463): as above

B1: Example 241 (peptide)
chain: YXQGTFTSDFSXXLDKKAQXAFIEYLLEXGHSSGAPPPSGS
modifications: non-natural residues; C18 diacid-γGlu-AEEA on Lys; C-terminal amide; synthetic construct; SITE 2: note = 2-Aminoisobutyric Acid; SITE 12: note = L-ornithine; SITE 13: note = alpha-methyl-leucine; SITE 17: note = Lysine is chemically modified through conjugation of the epsilon-amino group of the Lysine side chain with (2-[2-(2-Amino-ethoxy)-ethoxy]-acetyl)-(gamma-Glu)
As to B1, the Relative cAMP EC50 with hGLP-1R came out at 2.3 nM; in experiment [1], 0.0748 nM; in experiment [3], 2.71 nM. The molecule also showed a GLP1R Internalization EC50 in experiment [2] of 64.4 nM. In experiment [2], this molecule had an Internalization % TOP of 37.6%.

B2: Example 239 (peptide)
chain: YXQGTFTSDFSXXLDKKAQXAFIEYLLEXGPSSGXPPPSGS
modifications: Aib, Orn, alpha-methyl-Leu, lipidated Lys, C-terminal amide; synthetic construct; SITE 2: note = 2-Aminoisobutyric Acid; SITE 12: note = L-ornithine; SITE 13: note = alpha-methyl-leucine; SITE 17: note = Lysine is chemically modified through conjugation of the epsilon-amino group of the Lysine side chain with (2-[2-(2-Amino-ethoxy)-ethoxy]-acetyl)-(gamma-Glu)
In the experiment with hGLP-1R, B2 returned a Relative cAMP EC50 of 2.9 nM and a cAMP Rel EC50, nM (1% HSA) of 419 nM. In experiment [1], this molecule came in with a Relative cAMP EC50 of 0.0503 nM and a cAMP Rel EC50, nM (1% HSA) of 12 nM. In experiment [2], this molecule yielded a GLP1R Internalization EC50 of 72.6 nM and an Internalization % TOP of 42.9%. In addition, in experiment [3], the Relative cAMP EC50 was determined as 2.14 nM and the cAMP Rel EC50, nM (1% HSA) is 693 nM.

B3: Example 242 (peptide)
chain: YXQGTFTSDFSXXLDKKAQXAFIEYLLEXGXSSGAPPPSGS
modifications: Aib, Orn, αMeL, 4Pal; AEEA-γGlu-C18 diacid on Lys; amide; synthetic construct; SITE 2: note = 2-Aminoisobutyric Acid; SITE 12: note = L-ornithine; SITE 13: note = alpha-methyl-leucine; SITE 17: note = Lysine is chemically modified through conjugation of the epsilon-amino group of the Lysine side chain with (2-[2-(2-Amino-ethoxy)-ethoxy]-acetyl)-(gamma-Glu)
Regarding B3, in the experiment with hGLP-1R, the Relative cAMP EC50 amounted to 3.42 nM and the cAMP Rel EC50, nM (1% HSA) was 242 nM. In addition, in experiment [1], the Relative cAMP EC50 is 0.0916 nM and the cAMP Rel EC50, nM (1% HSA) came out at 5.94 nM. Moreover, in experiment [2], the GLP1R Internalization EC50 was 56 nM and the Internalization % TOP was found to be 38.2%. In experiment [3], this molecule yielded a Relative cAMP EC50 of 3.5 nM and a cAMP Rel EC50, nM (1% HSA) of 484 nM.

B4: Example 276 (peptide)
chain: YXQGTFTSDFSXXLDKKAQXAFIEYLLEXGPSSGAPPPSGT
modifications: synthetic construct; SITE 2: note = 2-Aminoisobutyric Acid; SITE 12: note = L-ornithine; SITE 13: note = alpha-methyl-leucine; SITE 17: note = Lysine is chemically modified through conjugation of the epsilon-amino group of the Lysine side chain with (gamma-Glu)-(2-[2-(2-Amino-ethoxy)-ethoxy]-acetyl)
For the molecule B4, in the experiment with hGLP-1R, the Relative cAMP EC50 amounted to 2.61 nM and the cAMP Rel EC50 (in the presence of 1% HSA) turned out to be 103 nM. Besides, in experiment [1], the Relative cAMP EC50 stood at 0.0708 nM and the cAMP Rel EC50 (in the presence of 1% HSA) was found to be 6.28 nM. Also, in experiment [2], the GLP1R Internalization EC50 is 237 nM and the Internalization % TOP was 68.4%. For the same molecule, in experiment [3], the Relative cAMP EC50 is 2.82 nM and the cAMP Rel EC50 (in the presence of 1% HSA) was determined as 113 nM.

B5: Example 280 (peptide)
chain: YXQGTFTSDXSKXLDKKAQXAFIEYLIEXGESSGAPPPSGS
modifications: synthetic construct; SITE 2: note = 2-Aminoisobutyric Acid; SITE 10: note = 3-(4-Pyridyl)-L-alanine; SITE 13: note = alpha-methyl-leucine; SITE 17: note = Lysine is chemically modified through conjugation of the epsilon-amino group of the Lysine side chain with (2-[2-(2-Amino-ethoxy)-ethoxy]-acetyl)
Consider B5, for which, in the experiment with hGLP-1R, the Relative cAMP EC50 is 0.95 nM and the cAMP Rel EC50 (in the presence of 1% HSA) was found to be 171 nM. For the same molecule, in experiment [1], the Relative cAMP EC50 worked out at 0.105 nM and the cAMP Rel EC50 (in the presence of 1% HSA) came to 15.6 nM. In experiment [2], this molecule yielded a GLP1R Internalization EC50 of 39.4 nM and an Internalization % TOP of 74.9%. Also, in experiment [3], the Relative cAMP EC50 came to 8.63 nM and the cAMP Rel EC50 (in the presence of 1% HSA) came out at 1600 nM.

B6: Example 238 (peptide)
chain: YXQGTFTSDFSXXLDKKAQXAFIEYLLEXGPSSXAPPPSGS
modifications: Aib, Orn, αMeL, lipidated Lys, C-terminal amide; synthetic construct; SITE 2: note = 2-Aminoisobutyric Acid; SITE 12: note = L-ornithine; SITE 13: note = alpha-methyl-leucine; SITE 17: note = Lysine is chemically modified through conjugation of the epsilon-amino group of the Lysine side chain with (2-[2-(2-Amino-ethoxy)-ethoxy]-acetyl)-(gamma-Glu)
In the experiment with hGLP-1R, B6 had a Relative cAMP EC50 of 2.71 nM and a cAMP Rel EC50, nM (1% HSA) of 262 nM. In experiment [1], this molecule returned a Relative cAMP EC50 of 0.0909 nM and a cAMP Rel EC50, nM (1% HSA) of 8.78 nM. In experiment [2], this molecule displayed a GLP1R Internalization EC50 of 32.1 nM and an Internalization % TOP of 38.2%. In experiment [3], this molecule gave a Relative cAMP EC50 of 2.78 nM and a cAMP Rel EC50, nM (1% HSA) of 334 nM.

B7: Example 250 (peptide)
chain: YXQGTFTSDFSXXLDKKAQXAFIEWLLEGGPSSGAPPPTGS
modifications: synthetic construct; SITE 2: note = 2-Aminoisobutyric Acid; SITE 12: note = L-ornithine; SITE 13: note = alpha-methyl-leucine; SITE 17: note = Lysine is chemically modified through conjugation of the epsilon-amino group of the Lysine side chain with (2-[2-(2-Amino-ethoxy)-ethoxy]-acetyl)-(gamma-Glu)
In the case of B7, in the experiment with hGLP-1R, the Relative cAMP EC50 came to 2.08 nM and the cAMP Rel EC50 (in the presence of 1% HSA) was determined as 194 nM. Besides, in experiment [1], the Relative cAMP EC50 is 0.154 nM and the cAMP Rel EC50 (in the presence of 1% HSA) came to 11.7 nM. Besides, in experiment [2], the GLP1R Internalization EC50 was 97 nM and the Internalization % TOP is 45%. For the same molecule, in experiment [3], the Relative cAMP EC50 came to 3.81 nM and the cAMP Rel EC50 (in the presence of 1% HSA) turned out to be 201 nM.

B8: Example 255 (peptide)
chain: YXQGTFTSDFSXXLDKKAQXAFIEYLLEAGPSSGHPPPSGH
modifications: synthetic construct; SITE 2: note = 2-Aminoisobutyric Acid; SITE 12: note = L-ornithine; SITE 13: note = alpha-methyl-leucine; SITE 17: note = Lysine is chemically modified through conjugation of the epsilon-amino group of the Lysine side chain with (2-[2-(2-Amino-ethoxy)-ethoxy]-acetyl)2-(gamma-Glu)
On to B8, for which the Relative cAMP EC50 with hGLP-1R stood at 1.9 nM; in experiment [1] it was 0.107 nM; in experiment [3] it was 5.48 nM. The cAMP Rel EC50 (in the presence of 1% HSA) with hGLP-1R is 272 nM; in experiment [1] it was 21.9 nM; in experiment [3], 883 nM. In experiment [2], this molecule yielded a GLP1R Internalization EC50 of 47.1 nM. In experiment [2], the Internalization % TOP was 51.8%.

B9: Example 256 (peptide)
chain: YXQGTFTSDFSXXLDKKAQXAFIEYLLEAGPSSGHPPPSGX
modifications: synthetic construct; SITE 2: note = 2-Aminoisobutyric Acid; SITE 12: note = L-ornithine; SITE 13: note = alpha-methyl-leucine; SITE 17: note = Lysine is chemically modified through conjugation of the epsilon-amino group of the Lysine side chain with (2-[2-(2-Amino-ethoxy)-ethoxy]-acetyl)2-(gamma-Glu)
For the molecule B9, in the experiment with hGLP-1R, the Relative cAMP EC50 was found to be 2.87 nM and the cAMP Rel EC50 (in the presence of 1% HSA) turned out to be 235 nM. Further, in experiment [1], the Relative cAMP EC50 was 0.176 nM and the cAMP Rel EC50 (in the presence of 1% HSA) amounted to 17.4 nM. Further, in experiment [2], the GLP1R Internalization EC50 stood at 87.8 nM and the Internalization % TOP was 43.5%. In addition, in experiment [3], the Relative cAMP EC50 was determined as 5.71 nM and the cAMP Rel EC50 (in the presence of 1% HSA) was 625 nM.

The values are drawn from patent US20240270821A1, “GIP/GLP1/GCG TRI-RECEPTOR AGONISTS AND USES THEREOF” (priority 2023, published 2024).
